We go through one substance from patent publication US20150056232A1.

In this test the target is TLR5.

On to “FliC180 protein of S. Typhimurium (Phase I FliC flagellar antigen with the ΔfliC180 deletion) (from UniProt P06179) (ligand)”, for which the NF-κB production (% higher than the FliC+ strain) was 50.
